Experimental data as given in patent publication US7803351B2, “Blood brain barrier permeation peptides” (priority 2004, dated 2010).
Read-outs that look alike come from different tables or passages of the source. Numbered stars: 1 amine (or outer) side, 2 acyl side, 3 side chain; on linkers, the order of the positions; unused ones are H or OH. Square brackets hold non-standard residues; d marks the D form. Ends that are not written are not given here. * marks the point of attachment. Fluorescein(5-Mal) = O=C1OC2(c3ccc(O)cc3Oc3cc(O)ccc32)c2ccc(N3C(=O)CC(*)C3=O)cc21; εLys = N[C@@H](CCCCN[*:1])C(=O)[*:2]

Key:
[1] = system: amyloid plaques in brain sections; test: Staining of brain tissue sections of APPsw+/− and WT mice; set-up: species or system mouse; conditions: 40 μm sections
Sequence of amyloid plaques in brain sections (P05067 672-711 limits assumed): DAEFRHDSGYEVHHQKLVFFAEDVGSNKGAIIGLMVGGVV
Source text: Staining experiments with cross sections of brain tissue from normal (WT) and APPsw+/− mice are suitable for evaluating target specificity of the peptide conjugate. For example, a candidate peptide conjugate is labeled with a fluorescent marker. A suitable marker is fluorescein-5-maleimide (FM; 3-equiv) in DMF, which labels the C-terminal thiol of the peptide. After a suitable reaction of peptide and FM at room temperature in the dark, the fluorescent-labeled peptide is purified, for example column-purified, requisite fraction eluted, combined, lyophilized and characterized through electron spray mass spectrometry. For tissue staining of brain sections of APPsw+/− mice (test) and WT mice (control), immunohistochemical staining of Aβ and for FM-peptide staining are performed according to published procedures (DeMattos et al., 2002; Holtzman et al., 2000). Rabbit-anti-pan Aβ antibody is used, for example, as a control, and visualized with anti-rabbit antibody conjugated with a fluorescent marker such as Alexa 568 (Molecular Probes). Staining of brain sections from normal and APPsw+/− mice are compared. Target specificity of the peptide is indicated by immunostaining of Aβ in APPsw+/− mice and no staining in WT mice.
Staining experiments with cross sections of brain tissue were also performed. […]

RBE4 cell monolayers [2] = system: RBE4 cell monolayers
RBE4 cell monolayers [3] = test: Transwell transendothelial transport across RBE4 cell monolayers (in vitro BBB model); conditions: apical to basolateral and basolateral to apical, up to 120 minutes
[4] = Acute toxicity in mice after intravenous bolus injection; assay type: in vivo; conditions: Balb/C male mice, intravenous bolus 14 mg/kg, up to several days post-injection
Protocol: Although absolute concentration of radiotracers in vivo is normally too low to cause any host toxicity, nevertheless host safety is a key determinant for any successful diagnostic agent. Therefore, using a Re-labeled peptide as a surrogate for a Tc-labeled peptide, acute toxicity in mice (Balb/C; male; 6-8wks old) was determined.

[5] = target: T1, preformed Aβ 1-40 aggregates (Homo sapiens, UniProt P05067); test: Competitive binding of ^99mTc-peptide to preformed Aβ 1-40 aggregates with unlabeled competitor; conditions: 1,000-fold molar excess of competitor
T1 construct: preformed Aβ 1-40 aggregates; purchased
T1 sequence (P05067 672-711): as the sequence (P05067 672-711 limits assumed) above
Protocol: Binding assays are performed to determine the binding specificity of the peptide conjugate. For example, a preliminary radioassay of Aβ-binding is performed. For example, a conjugate consisting of radiolabeled ^99mTc-peptide conjugate is incubated with Aβ fibrils in PBS for about 1-3 hours. Bound ^99mTc-peptide conjugate is separated on a Centricon filter unit (with, for example a 100 KDa cut off) and washed several times with PBS buffer. Saturable binding is indicated by calculation of a Kd (affinity constant) as well known in the art to help evaluate the relative amount of specific binding as opposed to non-specific binding. […] Radiolabeled peptide conjugate that is displaceable to background with either 1,000-fold molar excess of unlabeled peptide conjugate or, for example, cold Re-peptide conjugate, supports receptor-like binding behavior of the peptide conjugate to Aβ fibrils. Binding of the lead ^99mTc-peptide to preformed Aβ 1-40 aggregates in presence of increasing equivalents of unlabeled competing peptide. The aggregate-bound ^99mTc-peptide was isolated from free labeled peptide by centrifugation using Centricon (100 kDa cutoff) filters. The concentration of aggregate bound ^99mTc-peptide was calculated on the basis of activity retained on the filters (FIG. 5). […] Each data point represents a mean of triplicate measurements.

[6] = target: T2, Aβ 1-40 aggregates (Aβ fibrils) (Homo sapiens, UniProt P05067); test: Binding assay of ^99mTc-peptide with Aβ fibrils (Centricon filter separation); conditions: PBS, RT, 90 min, mean of triplicate; read-out: Kd (saturable binding to Aβ fibrils)
T2 construct: preformed Aβ 1-40 aggregates; purchased
T2 sequence (P05067 672-711): as the sequence (P05067 672-711 limits assumed) above
Protocol: Binding assays are performed to determine the binding specificity of the peptide conjugate. For example, a preliminary radioassay of Aβ-binding is performed. For example, a conjugate consisting of radiolabeled ^99mTc-peptide conjugate is incubated with Aβ fibrils in PBS for about 1-3 hours. Bound ^99mTc-peptide conjugate is separated on a Centricon filter unit (with, for example a 100 KDa cut off) and washed several times with PBS buffer. Saturable binding is indicated by calculation of a Kd (affinity constant) as well known in the art to help evaluate the relative amount of specific binding as opposed to non-specific binding. […]
Binding assays of ^99mTc-peptide with Aβ fibrils were performed in PBS. […] The concentration of aggregate-bound ^99mTc-peptide was calculated on the basis of activity retained on the filters. […]
Binding assays to preformed fibrils are performed using procedures as described in the literature (Klunk et al., 2001). […] The amount of activity incorporated in the fibrils is measured through γ-counting using previously published procedures (Zhen et al., 1999). […] The mixture is incubated at room temperature for 1.5 h, and the aggregate-bound ^99mTc-peptide and free radioactivity is separated by filtration through Centricon filtration units using a centrifuge. The aggregate-bound ^99mTc-peptide collected on filters is counted in a γ-counter. […]

Aβ-binding peptide coupled with FM: peptide labeled on the C-terminal thiol with fluorescein-5-maleimide (FM) (KKLVFFAKGC(Fluorescein(5-Mal)); not fully specified (residues 7, 8); printed as KKLVFFAεKGC)
staining of Aβ plaques in brain sections of APPsw+/− mice ([1]; APPsw+/− mouse, 17 months old, FM-peptide 2 μM solution): staining of plaques in the cortical region
staining in brain sections of WT mice ([1]; control WT mouse (Bl/6; 13.5 months old)): no staining

^3H-Aβ1-40 peptide: full length tritiated Aβ1-40 peptide (SEQ. ID. NO.: 2)
transwell transport / permeation across RBE4 cells (RBE4 cell monolayers [2]): did not show any transwell transport

inulin [^14C-inulin]
transwell transport / permeation across RBE4 cells (RBE4 cell monolayers [3]): low transwell transport

Re-peptide: rhenium complex of peptide KKLVFFAεKGC, surrogate for the Tc-labeled peptide (KKLVFFA[εLys]GC; not fully specified (residue 7); printed as KKLVFFAεKGC; also: rhenium complex (peptide-based chelation core))
acute toxicity [4]: nontoxic
displacement of aggregate-bound ^99mTc-peptide by competitor [5]: displaceable to background conditions

^99mTc-peptide: peptide KKLVFFAεKGC (SEQ. ID. NO.: 1) radiolabeled with technetium-99m in its peptide-based chelation core (KKLVFFAKGC; not fully specified; conjugate chemistry not built)
Kd [6]: 352 ± 82 nM
